Usually IC50 stands for the concentration at which inhibition is half-maximal. Read a low IC50 as higher potency.

Experimental findings from US20140017168A1 (published 2014) are described below.

*: point of attachment. NOTA = O=C(O)CN1CCN(CC(=O)O)CCN(CC(=O)*)CC1; Aoc = NCCCCCCCC(=O)O

The target in assay [1] is T1, gastrin-releasing peptide receptor on PC-3 cells (UniProt P30550 1-384, limits assumed).
T1 construct: whole, on cells
The assay can be described thus: competition with 125I-bombesin on 3x10^6 PC-3 cells, inhibitor 56 to 0.44 nM. As for the experimental part: (§1) A NOTA-conjugated bombesin derivative (IMP468) was prepared as described above. […] Our initial experiment was to determine if IMP468 could specifically block bombesin from binding to PC-3 cells. We used IMP333 as a non-specific control. […] A range of 56 to 0.44 nM was used as our inhibitory concentrations.

Assay [2] addresses T1, gastrin-releasing peptide receptor on …. The assay can be described thus: competition with 125I-BBN on PC-3 cells, inhibitor 250 to 2 nM. The procedure:
as §1
This experiment was repeated using a commercially available BBN peptide. We increased the amount of inhibitory peptide from 250 to 2 nM to block the ¹²⁵I-BBN from binding to PC-3 cells.

T1 sequence (P30550 whole entry): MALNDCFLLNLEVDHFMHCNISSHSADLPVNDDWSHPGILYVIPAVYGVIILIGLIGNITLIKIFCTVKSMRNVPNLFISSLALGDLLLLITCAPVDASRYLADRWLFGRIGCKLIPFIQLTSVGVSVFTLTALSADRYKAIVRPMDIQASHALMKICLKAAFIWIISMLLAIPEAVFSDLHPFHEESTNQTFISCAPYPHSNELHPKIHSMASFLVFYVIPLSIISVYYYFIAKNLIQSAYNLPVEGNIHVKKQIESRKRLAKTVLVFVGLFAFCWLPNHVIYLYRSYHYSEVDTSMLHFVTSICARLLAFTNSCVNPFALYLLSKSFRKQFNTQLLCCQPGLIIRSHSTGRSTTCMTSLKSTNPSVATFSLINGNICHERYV

B1: IMP468 (NOTA-NH-(CH2)7CO-Gln-Trp-Val-Trp-Ala-Val-Gly-His-Leu-Met-NH2) (peptide)
peptide: {NOTA-Aoc}-QWVWAVGHLM-NH2
SMILES: CSCC[C@H](NC(=O)[C@H](CC(C)C)NC(=O)[C@H](Cc1c[nH]cn1)NC(=O)CNC(=O)[C@@H](NC(=O)[C@H](C)NC(=O)[C@H](Cc1c[nH]c2ccccc12)NC(=O)[C@@H](NC(=O)[C@H](Cc1c[nH]c2ccccc12)NC(=O)[C@H](CCC(N)=O)NC(=O)CCCCCCCNC(=O)CN1CCN(CC(=O)O)CCN(CC(=O)O)CC1)C(C)C)C(C)C)C(N)=O
notes: also called NOTA-conjugated bombesin derivative; bombesin analogue
Consider B1, for which the figures for the half-inhibitory concentration (IC50) in assay [1] and in assay [2] were 21.5 nM and 35.9 nM, respectively.
